Laboratory results published in PMC314469, “Protein Interaction Networks by Proteome Peptide Scanning” (PLoS Biology, 2004).

T1: Boi1 SH3 (BOI1_YEAST), P38041
T1 chain: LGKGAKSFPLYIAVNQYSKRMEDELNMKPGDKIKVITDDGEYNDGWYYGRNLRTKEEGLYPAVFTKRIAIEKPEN

T2: Boi2 SH3 (BOI2_YEAST), P39969
T2 chain: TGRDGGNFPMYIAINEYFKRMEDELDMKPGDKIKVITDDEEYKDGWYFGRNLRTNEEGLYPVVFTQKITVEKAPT

T3: Yhr016c SH3 (YSC84_YEAST), P32793
T3 chain: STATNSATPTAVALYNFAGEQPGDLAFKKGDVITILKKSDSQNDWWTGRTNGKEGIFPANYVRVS

T4: Yfr024 SH3 (LSB3_YEAST), P43603
T4 chain: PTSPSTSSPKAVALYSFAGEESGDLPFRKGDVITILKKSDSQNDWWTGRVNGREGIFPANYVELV

T5: Rvs167 SH3 (RV167_YEAST), P39743
T5 chain: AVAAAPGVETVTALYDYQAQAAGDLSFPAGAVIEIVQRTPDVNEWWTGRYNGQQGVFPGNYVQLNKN

B1: YER134C 25-38 (peptide)
chain: LHGPFKPVKSSNGE
B2: YNL059C 229-242 (peptide)
chain: LKYPYFPTKMSYLQ
B3: YOR191W 344-357 (peptide)
chain: LKRPILPSKNMDHT
B4: YGL216W 249-262 (peptide)
chain: LLKPETPSKRLVIR
B5: YKL010C 724-737 (peptide)
chain: LENPSTPDKTEEDW
B6: YOR232W 175-188 (peptide)
chain: LGEPFDPNKHEATF
B7: YJL172W 363-376 (peptide)
chain: LGAPFSPRRKDKLV
B8: YIL089W 44-57 (peptide)
chain: LIPPLHPLKKQHPK
B9: YOR124C 391-404 (peptide)
chain: LLAPNSPLKNTKSV
B10: YJR126C 313-326 (peptide)
chain: LHYPYGPARNPSYI
B11: YMR108W 66-79 (peptide)
chain: LEQPAEPSKLAKKL
B12: YNL197C 178-191 (peptide)
chain: LFGPSFPNKTTVEI
B13: YGR083C 353-366 (peptide)
chain: LIDPSTPDKAAKKD
B14: YMR185W 739-752 (peptide)
chain: LHDPLVPIKSYGLT
B15: YHR148W 63-76 (peptide)
chain: LLPPTDPFRRKHEQ
B16: YIL173W 525-538 (peptide)
chain: LIMPIYPYRLVSTI
B17: YCL010C 185-198 (peptide)
chain: LIPPGFPTKNYPPG
B18: YIR029W 48-61 (peptide)
chain: LIQPTAPIRDPTRF
B19: YLR310C 161-174 (peptide)
chain: LHVPRNPSKSRRGS

Target: T1, Boi1 SH3 (BOI1_YEAST), P38041
Assay: SPOT array

| Binder | normalised SPOT signal, Boehringer light units (BLU); mean over the file's lines of this peptide |
| --- | --- |
| B1 | 103 |
| B2 | 91.9 |
| B3 | 133 |
| B4 | 229 |
| B5 | 50.1 |
| B6 | 98.8 |
| B7 | 140 |
| B8 | 10.8 |
| B9 | 57.9 |
| B10 | 146 |
| B11 | 86.5 |
| B12 | 91.9 |
| B13 | 24.8 |
| B14 | 0 |
| B15 | 56.5 |
| B16 | 95.2 |
| B17 | 40.1 |
| B18 | 30300 |
| B19 | 153 |

Target: T2, Boi2 SH3 (BOI2_YEAST), P39969
Assay: SPOT array

| Binder | normalised SPOT signal, Boehringer light units (BLU); mean over the file's lines of this peptide |
| --- | --- |
| B1 | 77.4 |
| B2 | 99 |
| B3 | 45.2 |
| B4 | 13.3 |
| B5 | 52.1 |
| B6 | 73.9 |
| B7 | 25.3 |
| B8 | 17.8 |
| B9 | 10.2 |
| B10 | 31.8 |
| B11 | 37.3 |
| B12 | 30.3 |
| B13 | 19.8 |
| B14 | 13.6 |
| B15 | 15 |
| B16 | 560 |
| B17 | 40.7 |
| B18 | 68.8 |
| B19 | 234 |

Target: T3, Yhr016c SH3 (YSC84_YEAST), P32793
Assay: SPOT array

| Binder | normalised SPOT signal, Boehringer light units (BLU); mean over the file's lines of this peptide |
| --- | --- |
| B1 | 150 |
| B2 | 184 |
| B3 | 251 |
| B4 | 59.7 |
| B5 | 68.6 |
| B6 | 161 |
| B7 | 250 |
| B8 | 366 |
| B9 | 53.5 |
| B10 | 142 |
| B11 | 96.5 |
| B12 | 174 |
| B13 | 302 |
| B14 | 227 |
| B15 | 224 |
| B16 | 973 |
| B17 | 323 |
| B18 | 286 |
| B19 | 211 |

Target: T4, Yfr024 SH3 (LSB3_YEAST), P43603
Assay: SPOT array

| Binder | normalised SPOT signal, Boehringer light units (BLU); mean over the file's lines of this peptide |
| --- | --- |
| B1 | 288 |
| B2 | 296 |
| B3 | 6130 |
| B4 | 1480 |
| B5 | 61 |
| B6 | 68.3 |
| B7 | 1510 |
| B8 | 1420 |
| B9 | 94.9 |
| B10 | 277 |
| B11 | 19.3 |
| B12 | 88.8 |
| B13 | 0 |
| B14 | 126 |
| B15 | 314 |
| B16 | 3060 |
| B17 | 85.1 |
| B18 | 541 |
| B19 | 1260 |

Target: T5, Rvs167 SH3 (RV167_YEAST), P39743
Assay: SPOT array

| Binder | normalised SPOT signal, Boehringer light units (BLU); mean over the file's lines of this peptide |
| --- | --- |
| B1 | 107 |
| B2 | 39.3 |
| B3 | 141 |
| B4 | 25.7 |
| B5 | 27.7 |
| B6 | 10.7 |
| B7 | 59.5 |
| B8 | 35.3 |
| B9 | 26.4 |
| B10 | 56.4 |
| B11 | 8.3 |
| B12 | 19.9 |
| B13 | 28.2 |
| B14 | 47.9 |
| B15 | 49.4 |
| B16 | 189 |
| B17 | 0 |
| B18 | 75.5 |
| B19 | 129 |
